According to the supplement of paper PMC5998384:

Key:
[1] = test system: HeLa Kyoto; assay: solubility change mitosis vs G1/S (difference of NP-40 vs SDS log2 ratios) (log2 ratio difference); higher = more soluble in mitosis
[2] = test system: HeLa Kyoto; assay: thermal stability score vs G1/S (z-score of summed log2 fold changes over temperatures); higher = more thermally stable than in G1/S
[3] = test system: HeLa Kyoto; assay: melting temperature (median over replicates), in situ; higher = more thermally stable
[4] = test system: HeLa Kyoto; assay: solubility in G1/S (NP-40 vs SDS abundance) (log2 ratio); higher = more soluble; conditions: cell cycle stage: G1/S
[5] = cell cycle stage: early G1 (4.5 h after nocodazole release)
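For melting temperature (median over replicates), in situ in this document: HeLa Kyoto cells synchronized by double thymidine or nocodazole block, proteins quantified by TMT10plex mass spectrometry, three independent biological replicates.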
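For solubility change mitosis vs G1/S (difference of NP-40 vs SDS log2 ratios) in this document: synchronized HeLa Kyoto cells (double thymidine block for G1/S, nocodazole release for mitosis), protein amounts in NP-40 versus SDS lysates quantified by mass spectrometry, three biological replicates.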
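For solubility in G1/S (NP-40 vs SDS abundance) in this document: HeLa Kyoto cells arrested at G1/S by double thymidine block, proteins quantified by TMT10plex mass spectrometry in mild NP-40 versus SDS extracts, three biological replicates.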
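For thermal stability score vs G1/S (z-score of summed log2 fold changes over temperatures) in this document: synchronized HeLa Kyoto cells, proteins quantified by TMT10plex mass spectrometry, three biological replicates, mitosis taken 0.5 h after nocodazole release, G1/S directly after double thymidine block.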

| Sequence | solubility change mitosis (log2) [1] | thermal stability score [2, 5] | thermal stability score ([2]; cell cycle stage: mitosis) | melting temperature ([3]; cell cycle stage: G1/S) [°C] | melting temperature ([3]; cell cycle stage: mitosis) [°C] | solubility in G1/S (log2) [4] |
| --- | --- | --- | --- | --- | --- | --- |
| MADEELEALRRQRLAELQAKHGDPGDAAQQEAKHREAEMRNSILAQVLDQSARARLSNLALVKPEKTKAVENYLIQMARYGQLSEKVSEQGLIEILKKVSQQTEKTTTVKFNRRKVMDSDEDDDY [PDCD5] | 0.568 | -5.9 | -7.32 | 54.3 | 52.3 | -0.112 |
| MADFLPSRSVLSVCFPGCLLTSGEAEQQRKSKEIDKCLSREKTYVKRLVKILLLGAGESGKSTFLKQMRIIHGQDFDQRAREEFRPTIYSNVIKGMRVLVDAREKLHIPWGDNSNQQHGDKMMSFDTRAPMAAQGMVETRVFLQYLPAIRALWADSGIQNAYDRRREFQLGESVKYFLDNLDKLGEPDYIPSQQDILLARRPTKGIHEYDFEIKNVPFKMVDVGGQRSERKRWFECFDSVTSILFLVSSSEFDQVLMEDRLTNRLTESLNIFETIVNNRVFSNVSIILFLNKTDLLEEKVQIVSIKDYFLEFEGDPHCLRDVQKFLVECFRNKRRDQQQKPLYHHFTTAINTENIRLVFRDVKDTILHDNLKQLMLQ [GNA13] | -0.27 | 1.07 | 1.56 | 53.7 | 53.5 | -0.176 |
| MADIIARLREDGIQKRVIQEGRGELPDFQDGTKATFHYRTLHSDDEGTVLDDSRARGKPMELIIGKKFKLPVWETIVCTMREGEIAQFLCDIKHVVLYPLVAKSLRNIAVGKDPLEGQRHCCGVAQMREHSSLGHADLDALQQNPQPLIFHMEMLKVESPGTYQQDPWAMTDEEKAKAVPLIHQEGNRLYREGHVKEAAAKYYDAIACLKNLQMKEQPGSPEWIQLDQQITPLLLNYCQCKLVVEEYYEVLDHCSSILNKYDDNVKAYFKRGKAHAAVWNAQEAQADFAKVLELDPALAPVVSRELRALEARIRQKDEEDKARFRGIFSH [AIP] | -0.0524 | 1.14 | 1.52 | 49.3 | 50.3 | 0.556 |
| MADILSQSETLASQDLSGDFKKPALPVSPAARSKAPASSSSNPEEVQKEGPTALQDSNSGEPDIPPPQPDCGDFRSLQEEQSRPPTAVSSPGGPARAPPYQEPPWGGPATAPYSLETLKGGTILGTRSLKGTSYCLFGRLSGCDVCLEHPSVSRYHAVLQHRASGPDGECDSNGPGFYLYDLGSTHGTFLNKTRIPPRTYCRVHVGHVVRFGGSTRLFILQGPEEDREAESELTVTQLKELRKQQQILLEKKMLGEDSDEEEEMDTSERKINAGSQDDEMGCTWGMGEDAVEDDAEENPIVLEFQQEREAFYIKDPKKALQGFFDREGEELEYEFDEQGHSTWLCRVRLPVDDSTGKQLVAEAIHSGKKKEAMIQCSLEACRILDTLGLLRQEAVSRKRKAKNWEDEDFYDSDDDTFLDRTGLIEKKRLNRMKKAGKIDEKPETFESLVAKLNDAERELSEISERLKASSQVLSESPSQDSLDAFMSEMKSGSTLDGVSRKKLHLRTFELRKEQQRLKGLIKIVKPAEIPELKKTETQTTGAENKAKKLTLPLFGAMKGGSKFKLKTGTVGKLPPKRPELPPTLMRMKDEPEVEEEEEEEEEEEKEKEEHEKKKLEDGSLSRPQPEIEPEAAVQEMRPPTDLTHFKETQTHENMSQLSEEEQNKDYQDCSKTTSLCAGPSASKNEYEKSRGELKKKKTPGPGKLPPTLSSKYPEDDPDYCVWVPPEGQSGDGRTHLNDKYGY [SLC4A1AP] | -0.0506 | -0.0668 | 1.11 | 50.1 | 51.7 | 0.0907 |
| MADISLDELIRKRGAAAKGRLNARPGVGGVRSRVGIQQGLLSQSTRTATFQQRFDARQKIGLSDARLKLGVKDAREKLLQKDARFRIKGKVQDAREMLNSRKQQTTVPQKPRQVADAREKISLKRSSPAAFINPPIGTVTPALKLTKTIQVPQQKAMAPLHPHPAGMRINVVNNHQAKQNLYDLDEDDDGIASVPTKQMKFAASGGFLHHMAGLSSSKLSMSKALPLTKVVQNDAYTAPALPSSIRTKALTNMSRTLVNKEEPPKELPAAEPVLSPLEGTKMTVNNLHPRVTEEDIVELFCVCGALKRARLVHPGVAEVVFVKKDDAITAYKKYNNRCLDGQPMKCNLHMNGNVITSDQPILLRLSDSPSMKKESELPRRVNSASSSNPPAEVDPDTILKALFKSSGASVTTQPTEFKIKL [POLDIP3] | 0.732 | -0.794 | -0.0102 | 49.3 | 49.9 | -0.386 |
